Patent US20210063414A1, “METHODS FOR PREVENTING AND/OR TREATING BONE LOSS CONDITIONS BY MODULATING IRISIN” (Dana-Farber Cancer Institute, Inc., priority 2018, published 2021)

Assays:
Assay in all cases: Crosslinking/co-immunoprecipitation/mass spectrometry (TMT quantitative proteomics) to identify irisin receptors
Type in all cases: binding
[1] = biological target: T1, MLO-Y4 cell surface proteins (Mus musculus, UniProt Q08189); details: co-precipitated protein Tgm3 (TGM3_MOUSE)
T1 construct: endogenous in cells; host or cells: MLO-Y4
T1 sequence (Q08189 1-693): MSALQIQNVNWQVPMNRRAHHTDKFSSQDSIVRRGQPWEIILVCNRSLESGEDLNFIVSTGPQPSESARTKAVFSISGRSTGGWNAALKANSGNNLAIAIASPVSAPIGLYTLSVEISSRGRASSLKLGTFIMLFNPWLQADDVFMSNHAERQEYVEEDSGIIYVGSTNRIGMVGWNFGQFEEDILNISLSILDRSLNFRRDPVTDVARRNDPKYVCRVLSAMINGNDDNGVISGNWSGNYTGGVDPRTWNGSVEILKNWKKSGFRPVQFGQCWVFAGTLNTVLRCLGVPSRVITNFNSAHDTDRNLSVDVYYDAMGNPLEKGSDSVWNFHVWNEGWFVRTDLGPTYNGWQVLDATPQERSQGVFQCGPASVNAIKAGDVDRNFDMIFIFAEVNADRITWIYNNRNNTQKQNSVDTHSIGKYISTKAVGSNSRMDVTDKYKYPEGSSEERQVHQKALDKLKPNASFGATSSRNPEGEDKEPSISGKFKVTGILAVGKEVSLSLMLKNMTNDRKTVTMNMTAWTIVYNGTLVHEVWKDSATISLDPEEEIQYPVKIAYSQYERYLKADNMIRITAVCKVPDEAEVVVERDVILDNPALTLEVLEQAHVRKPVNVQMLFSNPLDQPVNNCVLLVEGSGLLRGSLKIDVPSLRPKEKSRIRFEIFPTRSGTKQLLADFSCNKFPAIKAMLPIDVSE
In short: (§1)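 Relative protein abundance came from 6-plex TMT MS3 quantitation on an Orbitrap Fusion Lumos, after in-gel trypsin digestion of Coomassie-stained SDS-PAGE lanes. Input was a Ni-NTA pulldown (250 mM imidazole elution) of lysates from murine MLO-Y4 cells. These cells were treated on ice with His-tagged irisin or adipsin (10 nM, 20 min) in serum-free medium, then crosslinked with 1.5 mM DTSSP for 30 min.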

[2] = biological target: T2, MLO-Y4 cell surface proteins (Mus musculus, UniProt Q8K221); details: co-precipitated protein Arfip2 (ARFP2_MOUSE)
T2 construct: endogenous in cells; host or cells: MLO-Y4
T2 sequence (Q8K221 1-341): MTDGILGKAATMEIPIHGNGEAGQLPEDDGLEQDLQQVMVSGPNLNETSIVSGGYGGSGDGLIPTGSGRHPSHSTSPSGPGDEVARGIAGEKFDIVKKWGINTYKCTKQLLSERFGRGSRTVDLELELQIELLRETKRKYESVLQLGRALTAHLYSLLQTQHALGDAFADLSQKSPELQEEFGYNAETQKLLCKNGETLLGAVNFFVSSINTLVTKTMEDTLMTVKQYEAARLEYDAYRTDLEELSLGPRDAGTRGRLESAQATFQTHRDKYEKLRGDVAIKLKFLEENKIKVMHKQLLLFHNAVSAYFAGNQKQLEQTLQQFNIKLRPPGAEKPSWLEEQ
In short: as §1

[3] = biological target: T3, MLO-Y4 cell surface proteins (Mus musculus, UniProt Q9WTP6); details: co-precipitated protein Ak2 (KAD2_MOUSE)
T3 construct: endogenous in cells; host or cells: MLO-Y4
In short: as §1

[4] = biological target: T4, MLO-Y4 cell surface proteins (Mus musculus, UniProt Q9Z138); details: co-precipitated protein Ror2 (ROR2_MOUSE)
T4 construct: endogenous in cells; host or cells: MLO-Y4
In short: as §1

T4 sequence (Q9Z138 34-944): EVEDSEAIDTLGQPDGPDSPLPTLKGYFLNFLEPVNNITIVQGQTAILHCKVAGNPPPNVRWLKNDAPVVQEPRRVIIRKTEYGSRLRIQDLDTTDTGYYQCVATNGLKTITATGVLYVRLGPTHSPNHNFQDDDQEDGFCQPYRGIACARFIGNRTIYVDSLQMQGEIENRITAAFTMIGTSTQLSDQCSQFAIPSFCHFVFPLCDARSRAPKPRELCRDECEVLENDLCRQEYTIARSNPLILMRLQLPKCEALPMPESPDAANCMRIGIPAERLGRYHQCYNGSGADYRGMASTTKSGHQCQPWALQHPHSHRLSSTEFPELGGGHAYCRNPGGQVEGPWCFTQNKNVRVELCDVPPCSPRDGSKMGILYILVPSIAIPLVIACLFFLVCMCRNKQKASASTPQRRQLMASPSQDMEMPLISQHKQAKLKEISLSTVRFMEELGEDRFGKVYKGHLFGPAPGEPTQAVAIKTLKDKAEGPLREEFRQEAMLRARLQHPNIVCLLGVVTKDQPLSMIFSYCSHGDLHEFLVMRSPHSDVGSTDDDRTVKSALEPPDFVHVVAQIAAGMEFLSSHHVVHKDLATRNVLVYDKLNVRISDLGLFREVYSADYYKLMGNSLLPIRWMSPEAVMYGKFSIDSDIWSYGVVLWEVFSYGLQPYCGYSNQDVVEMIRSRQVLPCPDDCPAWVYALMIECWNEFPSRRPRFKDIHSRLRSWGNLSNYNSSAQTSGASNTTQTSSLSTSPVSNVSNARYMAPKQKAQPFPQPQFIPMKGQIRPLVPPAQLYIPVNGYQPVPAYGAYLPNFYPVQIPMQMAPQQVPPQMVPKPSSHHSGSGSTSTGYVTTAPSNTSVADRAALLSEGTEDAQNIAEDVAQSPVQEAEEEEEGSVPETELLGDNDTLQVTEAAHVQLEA

B1: irisin: secreted cleaved form of FNDC5; recombinant human/mouse irisin with C-terminal his tag produced in HEK293 cells (protein)
chain: DSPSAPVNVTVRHLKANSAVVSWDVLEDEVVIGFAISQQKKDVRMLRFIQEVNTTTRSCALWDLEEDTEYIVHVQAISIQGQSPASEPVLFKTPREAEKMASKNKDEVTMKE
modifications: left off: small tags and cut ends
notes: secreted cleaved form of FNDC5; recombinant human/mouse irisin with C-terminal his tag produced in HEK293 cells
[1]
  TMT signal-to-noise ratio: 45.8379
  irisin/adipsin TMT signal-to-noise ratio: 0.167
[2]
  TMT signal-to-noise ratio: 377.903
  irisin/adipsin TMT signal-to-noise ratio: 0.346
[3]
  TMT signal-to-noise ratio: 61.9776
  irisin/adipsin TMT signal-to-noise ratio: 0.546
[4]
  TMT signal-to-noise ratio: 39.5932
  irisin/adipsin TMT signal-to-noise ratio: 0.585
